One protein from ChEMBL document CHEMBL1156111, “Identification of the amino acid-AZT-phosphoramidase by affinity T7 phage display selection” (Bioorg Med Chem Lett, 2009) can be followed below.

Substrate in the data set: Cc1cn([C@H]2C[C@H](N=[N+]=[N-])[C@@H](COP(=O)(O)NCc3c[nH]c4ccccc34)O2)c(=O)[nH]c1=O
The experiment in a line: Hydrolysis activity of human HINT1 at pH 7.2 by continuous fluorescence assay.

One may read the Km as the concentration of substrate that gives half-maximal velocity.

B1: Adenosine 5'-monophosphoramidase HINT1 (Homo sapiens), P49773 (protein)
chain: MADEIAKAQVARPGGDTIFGKIIRKEIPAKIIFEDDRCLAFHDISPQAPTHFLVIPKKHISQISVAEDDDESLLGHLMIVGKKCAADLGLNKGYRMVVNEGSDGGQSVYHVHLHVLGGRQMHWPPG
B1: the Km turned out to be 981 µM.
